Test results published in patent publication US20210163536A1.
Bridges are numbered along the chain shown (N, C = ends). [ ]: non-standard residue; d: D form.

Legend:
[1] = target: human melanocortin-3 receptor (human) (UniProt P41968); assay: cell-based or functional assay
[2] = target: human melanocortin-4 receptor (human) (UniProt P32245); assay: cell-based or functional assay
[3] = target: human melanocortin-1 receptor (human) (UniProt Q01726); assay: competition with [125I]-NDP-alpha-MSH, CHO-K1 cell membranes
[4] = target: human melanocortin-3 receptor (human) (UniProt P41968); assay: as above
[5] = target: human melanocortin-4 receptor (human) (UniProt P32245); assay: as above

Chain of human melanocortin-4 receptor (human) (P32245 whole entry): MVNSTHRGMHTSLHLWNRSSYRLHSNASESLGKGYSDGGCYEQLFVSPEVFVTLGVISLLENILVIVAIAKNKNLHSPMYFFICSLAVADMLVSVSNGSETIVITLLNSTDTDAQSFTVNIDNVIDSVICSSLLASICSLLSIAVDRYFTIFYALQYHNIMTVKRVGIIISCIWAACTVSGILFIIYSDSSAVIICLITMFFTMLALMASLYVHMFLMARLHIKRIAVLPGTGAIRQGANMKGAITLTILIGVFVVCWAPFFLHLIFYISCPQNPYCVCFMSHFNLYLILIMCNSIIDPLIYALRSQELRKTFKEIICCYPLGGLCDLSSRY
Chain of human melanocortin-3 receptor (human) (P41968 whole entry): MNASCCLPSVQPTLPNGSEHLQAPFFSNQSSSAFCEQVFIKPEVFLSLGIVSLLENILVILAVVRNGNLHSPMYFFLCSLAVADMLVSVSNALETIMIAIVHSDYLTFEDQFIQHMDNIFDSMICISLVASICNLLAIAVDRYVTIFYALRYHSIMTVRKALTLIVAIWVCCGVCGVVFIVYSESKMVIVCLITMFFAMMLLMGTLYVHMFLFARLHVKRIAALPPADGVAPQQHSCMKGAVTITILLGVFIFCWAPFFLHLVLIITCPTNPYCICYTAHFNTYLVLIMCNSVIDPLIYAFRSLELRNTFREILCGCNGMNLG
Chain of human melanocortin-1 receptor (human) (Q01726 whole entry): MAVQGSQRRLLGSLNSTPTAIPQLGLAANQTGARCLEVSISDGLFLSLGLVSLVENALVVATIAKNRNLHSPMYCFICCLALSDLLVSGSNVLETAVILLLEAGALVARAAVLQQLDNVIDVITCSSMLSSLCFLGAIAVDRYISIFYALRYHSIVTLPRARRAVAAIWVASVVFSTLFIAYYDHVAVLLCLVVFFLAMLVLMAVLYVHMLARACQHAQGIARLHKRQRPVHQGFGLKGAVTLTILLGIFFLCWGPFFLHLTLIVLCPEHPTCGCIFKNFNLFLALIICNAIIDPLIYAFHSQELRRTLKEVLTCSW

B1: cyclo[Hydantoin(C(O)-(Glu-D-Ala))-His-D-Phe-Arg-Trp-Lys]-NH2 (peptide)
peptide: H[dF]RWK-NH2
modifications: lactam N-5; not fully specified (N-terminus); printed as cyclo[Hydantoin(C(O)-(Glu-D-Ala))-His-D-Phe-Arg-Trp-Lys]-NH2; also: hydantoin ring from Glu and D-Ala with C(O) joining their backbone nitrogens
EC50, intracellular cyclic AMP (cAMP) levels [1]: 22.3 nM | EC50, intracellular cyclic AMP (cAMP) levels [2]: 3.62 nM | Ki [3]: 72.6 nM | Ki [4]: 1920 nM | Ki [5]: 45.2 nM
